Experimental data published in patent US6861234B1, “Method of epitope discovery” (MannKind Corporation, priority 2000, dated 2005).

Target: HLA-A2.1 (Homo sapiens, UniProt P04439, D140Y/D185E/D98H/E176V/E277Q/G131W/G231S/I119V/I121R/I166T/I218V/L300P/L318F/N151K/N90K/P208A/P217A/Q86G/Q94H/R138H/R169H/T345S)
Assay: T2 cell HLA-A2.1 stabilisation (peptide binding) assay by flow cytometry, method of Stauss et al.
Format: cell-based
Settings: T2 cells, β2 microglobulin 5 μg/ml, peptides at 100, 10, 1 and 0.1 μg/ml, 4 hours 37° C., W6/32 + FITC anti-mouse IgG, FACScan; FIG. 3
Source text: The epitope is synthesized and tested for its ability to bind a MHC receptor. For example, in one preferred assay, cells displaying the MHC I receptor can be used to measure the binding affinity of candidate peptides labeled with a radionuclide. Another preferred approach measures the ability of a peptide to bind to an MHC I receptor using a cell culture-based assay. In this assay, cells lacking transporters associated with antigen processing (TAP) are used to determine whether or not a candidate peptide has the ability to bind to the MHC I receptor. […] When the cell is flooded with exogenous peptide that can bind to the MHC I cleft, expression of the receptor is restored. This can be monitored by several means such as RIA, FACS, and the like. Using TAP^− cells, one of skill in the art can screen large numbers of potential candidate peptides for receptor binding without having to perform detailed binding affinity analysis.
Binding of a candidate epitope to HLA-A2.1 was assayed according to the method of Stauss et al., (Proc Natl Acad Sci USA 89(17):7871-5 (1992)). […] Peptides were added at 100, 10, 1 and 0.1 μg/ml. The plate was rocked gently for 2 minutes and then incubated for 4 hours in a 5% CO2 incubator at 37° C. After the unbound peptide was removed by washing twice with IMDM, a saturating amount of monoclonal antibody W6/32 (Sigma) was added. […]

FLPWHRLFLL (Homo sapien) [tyrosinase 207-216]
binding to HLA-A2.1 (surface HLA-A2.1 molecules stabilized by peptide binding, fluorescence): bind HLA-A2.1 to a similar extent as the known A2.1 binder FLPSDYFPSV
